# Experimental data published in PMC11445558, “The molecular dissection of TRIM25’s RNA-binding mechanism provides key insights into its antiviral activity” (Nature Communications, 2024).
# Positions count from the first letter of the chain named.
# B1: Lnczc3h7a-SL (structured_RNA)
# RNA: UUUUAUCUGAGUUGGAGGUGAAG
# B2: pre-let-7 stem (stem-fusion) (structured_RNA)
# RNA: GUAUAGUUCAACUAUAC
# B3: RNA_50_motif1&2 (structured_RNA)
# RNA: UUAGUGGCAGACAAAGGCAUCGAGGCAGCCGCAGAAGUUGUCUGCGAAGU
# B4: TRIM25 CC (aa 189–379) (domain or fragment, human, UniProt Q14258 189-379, looked up)
# chain: ASLSQASADLEATLRHKLTVMYSQINGASRALDDVRNRQQDVRMTANRKVEQLQQEYTEMKALLDASETTSTRKIKEEEKRVNSKFDTIYQILLKKKSEIQTLKEEIEQSLTKRDEFEFLEKASKLRGISTKPVYIPEVELNHKLIKGIHQSTIDLKNELKQCIGRLQEPTPSSGDPGEHDPASTHKSTRP
# notes: also called CC domain; coiled-coil (CC) dimerisation domain
# B5: TRIM25 CC-m2 (domain or fragment, human, UniProt Q14258 189-379, looked up)
# chain: B4 chain with K95A, K97A
# B6: TRIM25 CC-m4 (domain or fragment, human, UniProt Q14258 189-379, looked up)
# chain: B4 chain with K132E, Y135E, H143E, K144E
# B7: pre-let-7a-1@2 (pre-let-7) (structured_RNA)
# RNA: GUAUAGUUUAAAAGGAGAUAACUAUAC
# B8: pre-let-7 loop (ssRNA)
# RNA: UAAAAGGAGAU
# B9: DENV-SL (structured_RNA)
# RNA: GCAGGUCGGAUUAAGCCAUAGUACGGGAAAAACUAUGCUACCUG
# B10: pre-let-7_modified (structured_RNA)
# RNA: GUAUAGUUUAAAGAAUGGAUAACUAUAC
# B11: 28-mer (structured_RNA)
# RNA: AUGGCUAGCUGGAGCCACCCGCAGUUCG
# How the values were obtained:
# TRIM25 CC-PRY/SPRY [1] = target: T1, TRIM25 CC-PRY/SPRY (Homo sapiens, UniProt Q14258 189-630); assay: ITC; conditions: mean of replicates 15;29;20;9; ITC: 20 mM MES pH 6.5, 75 mM NaCl, 0.5 mM TCEP, 20 C; protein NMR: 20 mM sodium phosphate pH 6.5, 150 mM NaCl, 2 mM TCEP, 293 K
# TRIM25 CC [2] = target: T2, TRIM25 CC (Homo sapiens, UniProt Q14258 189-379); assay: ITC; conditions: mean of replicates 59;61;63; ITC: 20 mM MES pH 6.5, 75 mM NaCl, 0.5 mM TCEP, 20 C; protein NMR: 20 mM sodium phosphate pH 6.5, 150 mM NaCl, 2 mM TCEP, 293 K
# TRIM25 CC-PRY/SPRY [3] = target: T1, TRIM25 CC-PRY/SPRY; assay: ITC; KD1 of two sites, mean of replicates 0.25;0.03;0.02; ITC: 20 mM MES pH 6.5, 75 mM NaCl, 0.5 mM TCEP, 20 C; protein NMR: 20 mM sodium phosphate pH 6.5, 150 mM NaCl, 2 mM TCEP, 293 K; conditions: protein: recombinant; tags: His-Trx, cleaved (3C); chain copies: 2; hairpin
# Target sequence in this assay (Q14258 189-630): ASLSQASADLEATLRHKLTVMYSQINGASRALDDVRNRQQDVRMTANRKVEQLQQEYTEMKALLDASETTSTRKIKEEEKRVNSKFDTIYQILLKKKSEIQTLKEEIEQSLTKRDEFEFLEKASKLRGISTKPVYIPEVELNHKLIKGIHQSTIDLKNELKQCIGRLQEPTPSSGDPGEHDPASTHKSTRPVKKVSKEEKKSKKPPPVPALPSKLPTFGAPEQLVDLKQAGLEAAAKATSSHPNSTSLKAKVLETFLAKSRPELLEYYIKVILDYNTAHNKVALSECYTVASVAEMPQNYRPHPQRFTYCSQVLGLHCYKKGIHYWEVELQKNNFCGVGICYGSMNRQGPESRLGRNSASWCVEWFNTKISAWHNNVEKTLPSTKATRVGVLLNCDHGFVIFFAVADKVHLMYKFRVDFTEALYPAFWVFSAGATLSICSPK
# TRIM25 PRY/SPRY [4] = target: T3, TRIM25 PRY/SPRY (Homo sapiens, UniProt Q14258 439-630); assay: NMR; CSPs in binding site 2 only; ITC: 20 mM MES pH 6.5, 75 mM NaCl, 0.5 mM TCEP, 20 C; protein NMR: 20 mM sodium phosphate pH 6.5, 150 mM NaCl, 2 mM TCEP, 293 K; conditions: protein: recombinant; tags: His-Trx, cleaved (3C); chain copies: 3; hairpin
# TRIM25 CC-PRY/SPRY [5] = target: T1, TRIM25 CC-PRY/SPRY; assay: ITC; ITC: 20 mM MES pH 6.5, 75 mM NaCl, 0.5 mM TCEP, 20 C; protein NMR: 20 mM sodium phosphate pH 6.5, 150 mM NaCl, 2 mM TCEP, 293 K; conditions: protein: recombinant, tags: His-Trx, cleaved (3C), chain copies: 2
# Target sequence in this assay (Q14258 189-630): as above
# [6] = target: the molecule itself; assay: SEC-MALS; 50 µl injected onto Superdex 200 5/150 GL in 20 mM MES, pH 6.5, 75 mM NaCl, 0.5 mM TCEP, 0.3 ml/min, room temperature
# TRIM25 CC [7] = target: T2, TRIM25 CC; assay: ITC; ITC: 20 mM MES pH 6.5, 75 mM NaCl, 0.5 mM TCEP, 20 C; protein NMR: 20 mM sodium phosphate pH 6.5, 150 mM NaCl, 2 mM TCEP, 293 K; conditions: protein: recombinant; tags: His-Trx, cleaved (3C); chain copies: 2; hairpin
# TRIM25 PRY/SPRY-m3 = TRIM25 PRY/SPRY-m3 (Homo sapiens, UniProt Q14258 439-630, H505E;K508E;K602E); assay: ITC; 400 uM RNA, 50 uM protein; ITC: 20 mM MES pH 6.5, 75 mM NaCl, 0.5 mM TCEP, 20 C; protein NMR: 20 mM sodium phosphate pH 6.5, 150 mM NaCl, 2 mM TCEP, 293 K; conditions: protein: recombinant; tags: His-Trx, cleaved (3C); chain copies: 3; hairpin
# TRIM25 CC-m4 = TRIM25 CC-m4 (Homo sapiens, UniProt Q14258 189-379, K320E;Y323E;H331E;K332E); assay: as above; conditions: protein: recombinant; tags: His-Trx, cleaved (3C); chain copies: 2; hairpin
# TRIM25 PRY/SPRY [8] = target: T3, TRIM25 PRY/SPRY; assay: ITC; Supplementary Table 1 first row (probably pre-let-7) reads 0.76-0.97 uM; ITC: 20 mM MES pH 6.5, 75 mM NaCl, 0.5 mM TCEP, 20 C; protein NMR: 20 mM sodium phosphate pH 6.5, 150 mM NaCl, 2 mM TCEP, 293 K; conditions: protein: recombinant; tags: His-Trx, cleaved (3C); chain copies: 3; hairpin
# TRIM25 CC-PRY/SPRY-m9 [9] = target: T4, TRIM25 CC-PRY/SPRY-m9 (Homo sapiens, UniProt Q14258 189-630, K283A;K285A;K320E;Y323E;H331E;K332E;H505E;K508E;K602E); assay: ITC; 200 uM RNA, 20 uM protein; ITC: 20 mM MES pH 6.5, 75 mM NaCl, 0.5 mM TCEP, 20 C; protein NMR: 20 mM sodium phosphate pH 6.5, 150 mM NaCl, 2 mM TCEP, 293 K; conditions: protein: recombinant; tags: His-Trx, cleaved (3C); chain copies: 2; hairpin
# TRIM25 CC-m2 = TRIM25 CC-m2 (Homo sapiens, UniProt Q14258 189-379, K283A;K285A); assay: ITC; enthalpy reduced about 10-fold; ITC: 20 mM MES pH 6.5, 75 mM NaCl, 0.5 mM TCEP, 20 C; protein NMR: 20 mM sodium phosphate pH 6.5, 150 mM NaCl, 2 mM TCEP, 293 K; conditions: protein: recombinant; tags: His-Trx, cleaved (3C); chain copies: 2; hairpin
# TRIM25 PRY/SPRY [10] = target: T3, TRIM25 PRY/SPRY; assay: NMR; CSPs in binding site 1 only; ITC: 20 mM MES pH 6.5, 75 mM NaCl, 0.5 mM TCEP, 20 C; protein NMR: 20 mM sodium phosphate pH 6.5, 150 mM NaCl, 2 mM TCEP, 293 K; conditions: protein: recombinant; tags: His-Trx, cleaved (3C); single-stranded
# TRIM25 CC-PRY/SPRY [11] = target: T1, TRIM25 CC-PRY/SPRY; assay: ITC; KD1 of two sites, mean of replicates 0.015;0.016;0.011; ITC: 20 mM MES pH 6.5, 75 mM NaCl, 0.5 mM TCEP, 20 C; protein NMR: 20 mM sodium phosphate pH 6.5, 150 mM NaCl, 2 mM TCEP, 293 K; conditions: protein: recombinant; tags: His-Trx, cleaved (3C); chain copies: 2; hairpin with bulge
# Target sequence in this assay (Q14258 189-630): as above
# TRIM25 PRY/SPRY [12] = target: T3, TRIM25 PRY/SPRY; assay: ITC; mean of replicates 0.3;0.7;0.3;0.2;0.6; DENV-SL in cell; ITC: 20 mM MES pH 6.5, 75 mM NaCl, 0.5 mM TCEP, 20 C; protein NMR: 20 mM sodium phosphate pH 6.5, 150 mM NaCl, 2 mM TCEP, 293 K; conditions: protein: recombinant; tags: His-Trx, cleaved (3C); chain copies: 3; hairpin with bulge
# TRIM25 CC-PRY/SPRY-m9 [13] = target: T4, TRIM25 CC-PRY/SPRY-m9; assay: ITC; 300 uM RNA, 30 uM protein; ITC: 20 mM MES pH 6.5, 75 mM NaCl, 0.5 mM TCEP, 20 C; protein NMR: 20 mM sodium phosphate pH 6.5, 150 mM NaCl, 2 mM TCEP, 293 K; conditions: protein: recombinant; tags: His-Trx, cleaved (3C); chain copies: 2; hairpin
# TRIM25 CC-PRY/SPRY [14] = target: T1, TRIM25 CC-PRY/SPRY; assay: ITC; KD1 of two sites; ITC: 20 mM MES pH 6.5, 75 mM NaCl, 0.5 mM TCEP, 20 C; protein NMR: 20 mM sodium phosphate pH 6.5, 150 mM NaCl, 2 mM TCEP, 293 K; conditions: protein: recombinant; tags: His-Trx, cleaved (3C); chain copies: 2; hairpin
# Target sequence in this assay (Q14258 189-630): as above
# TRIM25 PRY/SPRY [15] = target: T3, TRIM25 PRY/SPRY; assay: ITC; ITC: 20 mM MES pH 6.5, 75 mM NaCl, 0.5 mM TCEP, 20 C; protein NMR: 20 mM sodium phosphate pH 6.5, 150 mM NaCl, 2 mM TCEP, 293 K; conditions: protein: recombinant; tags: His-Trx, cleaved (3C); chain copies: 3; stem-loop (called 28-mer duplex RNA)
# T3 sequence (Q14258 439-630): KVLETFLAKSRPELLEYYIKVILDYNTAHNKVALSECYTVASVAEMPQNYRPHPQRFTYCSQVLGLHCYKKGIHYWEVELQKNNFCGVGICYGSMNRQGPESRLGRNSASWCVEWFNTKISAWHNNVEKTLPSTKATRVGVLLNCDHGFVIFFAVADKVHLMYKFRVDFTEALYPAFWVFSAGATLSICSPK
# Chain of TRIM25 CC-m2 (Q14258 189-379 K283A/K285A): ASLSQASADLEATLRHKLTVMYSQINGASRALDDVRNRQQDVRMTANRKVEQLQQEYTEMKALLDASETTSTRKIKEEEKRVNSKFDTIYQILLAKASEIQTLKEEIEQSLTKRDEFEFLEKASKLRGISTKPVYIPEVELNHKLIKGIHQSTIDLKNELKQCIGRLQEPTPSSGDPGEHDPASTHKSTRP
# Chain of TRIM25 PRY/SPRY-m3 (Q14258 439-630 H505E/K508E/K602E): as the sequence (Q14258 439-630) above, with H67E, K70E, K164E counted along it
molecule,measurement,setting,value
Lnczc3h7a loop,Kd,TRIM25 CC-PRY/SPRY [1],18000 nM
same,Kd,TRIM25 CC [2],61000 nM
B1,Kd,TRIM25 CC-PRY/SPRY [3],100 nM
B2,binding result,TRIM25 PRY/SPRY [4],binds
B3,Kd,TRIM25 CC-PRY/SPRY [5]; hairpin with bulge,3.5 nM
B4,binding result,[6],binds
B5,binding result,[6],binds
B6,binding result,[6],binds
B7,Kd,TRIM25 CC-PRY/SPRY [5]; hairpin,62 ± 44 nM
same,Kd,TRIM25 CC [7],3200 ± 700 nM
same,binding result,TRIM25 PRY/SPRY-m3,no binding
same,binding result,TRIM25 CC-m4,no binding
same,Kd,TRIM25 PRY/SPRY [8],4000 ± 1000 nM
same,binding result,TRIM25 CC-PRY/SPRY-m9 [9],no binding
same,Kd,TRIM25 CC-m2,4000 ± 2000 nM
B8,binding result,TRIM25 PRY/SPRY [10],binds
B9,Kd,TRIM25 CC-PRY/SPRY [11],14 nM
same,Kd,TRIM25 PRY/SPRY [12],420 nM
B10,binding result,TRIM25 CC-PRY/SPRY-m9 [13],no binding
same,Kd,TRIM25 CC-PRY/SPRY [14],180 nM
B11,Kd,TRIM25 PRY/SPRY [15],900 nM
